Measurements reported in patent US20220305006A1 (University of California, published 2022).

Experiments:
Test in all cases: cell-based or functional assay
[1] = target: BACE in CHO-7W cells (Chinese hamster ovary cells stably transfected with wildtype human APP)
[2] = target: Recombinant Human Cathepsin D (human, UniProt P07339 65-412)
[3] = target: BACE1 expressed from a transfected plasmid in 293T cells (NRG1 and PSGL1 assays)

Recombinant Human Cathepsin D, sequence (P07339 65-412): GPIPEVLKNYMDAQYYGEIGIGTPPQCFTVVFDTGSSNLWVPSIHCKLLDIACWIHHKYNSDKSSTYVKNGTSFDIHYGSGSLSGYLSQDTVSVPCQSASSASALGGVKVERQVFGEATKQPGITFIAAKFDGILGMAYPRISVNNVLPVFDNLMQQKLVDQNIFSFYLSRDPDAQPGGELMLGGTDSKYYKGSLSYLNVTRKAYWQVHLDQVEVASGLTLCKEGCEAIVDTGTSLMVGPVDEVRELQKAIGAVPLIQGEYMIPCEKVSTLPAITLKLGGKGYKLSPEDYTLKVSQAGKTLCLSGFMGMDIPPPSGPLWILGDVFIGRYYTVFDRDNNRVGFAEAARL

decrease of BACE cleavage product sAPPβ from CHO-7W cells, EC50 [1]: ~10 µM
Cat D activity (fluorogenic substrate), IC50 [2]: > 5 µM
NRG1 cleavage by BACE in co-transfected 293T cells (secreted alkaline phosphatase), EC50 [3]: > 10 µM
PSGL1 cleavage by BACE in co-transfected 293T cells (secreted alkaline phosphatase), EC50 [3]: > 10 µM
Binder: Ac-ALYPYFLPISAK-NH2 [Peptide 65007]
